Assay results from paper PMC2978110, “EBP1 Is a Novel E2F Target Gene Regulated by Transforming Growth Factor-β”.

Assays:
GST-E2F1 [1] = target: T1, GST-E2F1 (UniProt Q01094 1-437); assay: competition; 100-fold excess vs EBP1 -158 and -113 probes; EMSA as in ref 34 (buffer, pH, temperature not given); 1.8 ug GST-E2F1 per reaction, 24 ng/ul ds mutant adenovirus E2 E2F-site oligo as nonspecific competitor; details: protein: recombinant, blunt
GST-E2F1 [2] = target: T1, GST-E2F1; assay: EMSA; EMSA as in ref 34 (buffer, pH, temperature not given); 1.8 ug GST-E2F1 per reaction, 24 ng/ul ds mutant adenovirus E2 E2F-site oligo as nonspecific competitor; details: protein: recombinant, label: 32P
GST-E2F1 [3] = target: T1, GST-E2F1; assay: competition; 100-fold excess vs EBP1 -158 and -113 probes; substantially reduced; EMSA as in ref 34 (buffer, pH, temperature not given); 1.8 ug GST-E2F1 per reaction, 24 ng/ul ds mutant adenovirus E2 E2F-site oligo as nonspecific competitor; details: protein: recombinant; blunt
GST-E2F1 [4] = target: T1, GST-E2F1; assay: EMSA; additional low-mobility complex; EMSA as in ref 34 (buffer, pH, temperature not given); 1.8 ug GST-E2F1 per reaction, 24 ng/ul ds mutant adenovirus E2 E2F-site oligo as nonspecific competitor; details: protein: recombinant; label: 32P; blunt
[5] = terminal G:G mismatch as printed

T1 sequence (Q01094 whole entry): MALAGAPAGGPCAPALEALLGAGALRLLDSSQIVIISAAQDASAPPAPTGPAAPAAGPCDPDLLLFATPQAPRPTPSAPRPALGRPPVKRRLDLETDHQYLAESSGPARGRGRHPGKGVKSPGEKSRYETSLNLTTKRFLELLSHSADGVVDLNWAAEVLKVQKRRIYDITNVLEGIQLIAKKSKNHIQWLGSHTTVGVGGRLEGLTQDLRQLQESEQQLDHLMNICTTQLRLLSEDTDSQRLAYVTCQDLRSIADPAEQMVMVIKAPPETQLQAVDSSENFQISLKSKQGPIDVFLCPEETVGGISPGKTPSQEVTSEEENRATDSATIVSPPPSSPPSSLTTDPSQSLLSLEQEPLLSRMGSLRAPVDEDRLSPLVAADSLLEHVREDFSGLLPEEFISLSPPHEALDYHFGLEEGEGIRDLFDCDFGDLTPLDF

B1: N-myc E2F site (dsDNA)
DNA 1: GATCCTTTTGGCGCGAAAGGCTTAGATC
DNA 2: GATCTAAGCCTTTCGCGCCAAAAGGATC
binding result (GST-E2F1 [1]): binds

B2: EBP1 -155 probe (-155 to -120) (dsDNA)
DNA 1: GAGCTTCGAACTACAATTCCCAGCCTGCCTCTCGCGCTG
DNA 2: CAGCGCGAGAGGCAGGCTGGGAATTGTAGTTCGAAGCTC
binding result (GST-E2F1 [2]; blunt): no binding

B3: DHFR E2F site (dsDNA)
DNA 1: CTAGAGCAATTTCGCGCCAAACTTGGATC
DNA 2: GATCCAAGTTTGGCGCGAAATTGCTCTAG
binding result (GST-E2F1 [1]; label: 32P as probe): binds

B4: EBP1 -136 probe (-136 to -100) (dsDNA)
DNA 1: TAGTTCGAAGGCCCTCGAGAGCGGCTAGAGTCTGG
DNA 2: GCAGACTCTAGCCGCTCTCGAGGGCCTTCGAACTA
binding result (GST-E2F1 [2]; [5]): binds

B5: EBP1 -168 probe (-168 to -130) (dsDNA)
DNA 1: GCTTAGGAGCGCGAGAGGCAGGCTGGGAATTGTAGTTC
DNA 2: GAACTACAATTCCCAGCCTGCCTCTCGCGCTCCTAAGC
binding result (GST-E2F1 [2]; blunt): binds

B6: EBP1 -166 (-113*) (dsDNA)
DNA 1: TTAGGAGCGCGAGAGGCAGGCTGGGAATTGTAGTTCGAAGGCCCTCGAGAAAAAATAGAGTC
DNA 2: GACTCTATTTTTTCTCGAGGGCCTTCGAACTACAATTCCCAGCCTGCCTCTCGCGCTCCTAA
binding result (GST-E2F1 [2]; blunt): binds

B7: EBP1 -158* (dsDNA)
DNA 1: GCTTAGGAAAAAAAGAGGCAGGCTGGGAATTGTAGTTC
DNA 2: GAACTACAATTCCCAGCCTGCCTCTTTTTTTCCTAAGC
binding result (GST-E2F1 [2]; blunt): no binding

B8: EBP1 -113* (dsDNA)
DNA 1: TAGTTCGAAGGCCCTCGAGAAAAAATAGAGTCTGG
DNA 2: GCAGACTCTATTTTTTCTCGAGGGCCTTCGAACTA
binding result (GST-E2F1 [2]; [5]): no binding

B9: TIMELESS E2F site (dsDNA)
DNA 1: CAGAAAATTCATAGCGCTGTGATTTTTAGATC
DNA 2: GATCTAAAAATCACAGCGCTATGAATTTTCTG
binding result (GST-E2F1 [3]): binds

B10: TIMELESS E2F site mutant (dsDNA)
DNA 1: CAGAAAATTCATAAAAATGTGATTTTTAGATC
DNA 2: GATCTAAAAATCACATTTTTATGAATTTTCTG
binding result (GST-E2F1 [1]): no binding

B11: DHFR E2F site mutant (dsDNA)
DNA 1: CTAGAGCAATTTAAAAACAAACTTGGATC
DNA 2: GATCCAAGTTTGTTTTTAAATTGCTCTAG
binding result (GST-E2F1 [1]): no binding

B12: EBP1 -166 (-158*) (dsDNA)
DNA 1: TTAGGAAAAAAAGAGGCAGGCTGGGAATTGTAGTTCGAAGGCCCTCGAGAGCGGCTAGAGTC
DNA 2: GACTCTAGCCGCTCTCGAGGGCCTTCGAACTACAATTCCCAGCCTGCCTCTTTTTTTCCTAA
binding result (GST-E2F1 [2]; blunt): binds

B13: EBP1 -166 (both*) (dsDNA)
DNA 1: TTAGGAAAAAAAGAGGCAGGCTGGGAATTGTAGTTCGAAGGCCCTCGAGAAAAAATAGAGTC
DNA 2: GACTCTATTTTTTCTCGAGGGCCTTCGAACTACAATTCCCAGCCTGCCTCTTTTTTTCCTAA
binding result (GST-E2F1 [2]; blunt): no binding

B14: EBP1 -166 wt (-166 to -104) (dsDNA)
DNA 1: TTAGGAGCGCGAGAGGCAGGCTGGGAATTGTAGTTCGAAGGCCCTCGAGAGCGGCTAGAGTC
DNA 2: GACTCTAGCCGCTCTCGAGGGCCTTCGAACTACAATTCCCAGCCTGCCTCTCGCGCTCCTAA
binding result (GST-E2F1 [4]): binds
